Where two headings read alike, the source gives them in different places.

Data set [1] addresses FtsZ (UniProt P0A9A6). Briefly: single-molecule tracking by TIRF microscopy; small amounts of Cy5-labelled FtsZ (<2 nM) in 1.5 uM Alexa488-FtsZ, or of ZapA-Cy5 in unlabeled ZapA with 1.5 uM Alexa488-FtsZ, on supported bilayers; lifetime from a mono-exponential fit, corrected for photobleaching.
Data set [2] concerns the target FtsZ (UniProt P0A9A6). Described as above. The source holds these as a separate data set.
Data set [3] deals with FtsZ (UniProt P0A9A6). Briefly: FRAP; membrane-bound filament network at steady state (15 min), small area bleached; half-time from fit to I(t) = a(1 - exp(-bt)).
Data set [4] has as its target T1, FtsZ (UniProt P0A9A6 1-383, Cy5 or Alexa488 label on part of the protein (30% labelled in the self-organization assay; <2 nM Cy5-labelled FtsZ in 1.5 uM Alexa488-labelled FtsZ for single molecules); labelled site not stated).
T1 sequence (looked up): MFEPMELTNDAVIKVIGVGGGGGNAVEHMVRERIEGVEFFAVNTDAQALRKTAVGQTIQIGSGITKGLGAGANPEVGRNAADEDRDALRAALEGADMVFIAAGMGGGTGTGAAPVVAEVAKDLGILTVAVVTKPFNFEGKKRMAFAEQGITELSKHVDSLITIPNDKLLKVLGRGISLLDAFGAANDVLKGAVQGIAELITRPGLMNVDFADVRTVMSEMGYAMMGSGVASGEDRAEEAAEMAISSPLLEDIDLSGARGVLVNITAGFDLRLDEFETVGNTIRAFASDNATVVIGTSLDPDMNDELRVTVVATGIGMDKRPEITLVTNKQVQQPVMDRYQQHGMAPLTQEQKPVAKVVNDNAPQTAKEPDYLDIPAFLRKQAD
Briefly: cell-based or functional assay.

Data set [5] concerns the molecule itself. Description: SEC; size-exclusion chromatography of ZapA wild type and mutants; conditions not shown. Background: In gel filtration, larger molecules generally elute earlier.

For the molecule “ZapA-Cy5 (from UniProt P0ADS2 1-109) (natural protein)”, the single-molecule lifetime in data set [1] stood at 0.94 s; in data set [2], 0.95. In addition, the FRAP half-time of recovery in data set [3] came to 3.01 s.

B1: ZapA wild type (natural protein, UniProt P0ADS2 1-109, looked up)
chain: MSAQPVDIQIFGRSLRVNCPPDQRDALNQAADDLNQRLQDLKERTRVTNTEQLVFIAALNISYELAQEKAKTRDYAASMEQRIRMLQQTIEQALLEQGRITEKTNQNFE
notes: ZapA, FtsZ-associated protein; also called ZapA WT; source: purified protein; protocols in the Supplementary Information
Consider B1, for which, in data set [4], the “EC50 of ZapA for the correlation length of the FtsZ filament network at steady state (ρss)” value was determined as 1050 nM and the “EC50 of ZapA for the mean curvature of the FtsZ filament network at steady state (kss)” value came to 840 nM. Besides, the stoichiometry N – broadly, the number of molecules, sites or subunits per partner or assembly – in data set [5] amounted to 4.

The values are drawn from article PMC6917738, “Cooperative ordering of treadmilling filaments in cytoskeletal networks of FtsZ and its crosslinker ZapA” (Nature Communications, 2019).
